The results in this text go back to patent US20210317201A1 (Boehringer Ingelheim, published 2021).

One test deals with T1, Human IL-23 no linker (human, UniProt P29460 23-328).
T1 construct: also called recombinant IL-23 without linker
T1 sequence 1: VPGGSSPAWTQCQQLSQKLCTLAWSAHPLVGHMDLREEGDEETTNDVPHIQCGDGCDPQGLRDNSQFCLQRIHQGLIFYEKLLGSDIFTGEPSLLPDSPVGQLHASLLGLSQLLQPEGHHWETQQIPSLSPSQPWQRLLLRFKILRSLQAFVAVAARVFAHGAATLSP
T1 sequence 2: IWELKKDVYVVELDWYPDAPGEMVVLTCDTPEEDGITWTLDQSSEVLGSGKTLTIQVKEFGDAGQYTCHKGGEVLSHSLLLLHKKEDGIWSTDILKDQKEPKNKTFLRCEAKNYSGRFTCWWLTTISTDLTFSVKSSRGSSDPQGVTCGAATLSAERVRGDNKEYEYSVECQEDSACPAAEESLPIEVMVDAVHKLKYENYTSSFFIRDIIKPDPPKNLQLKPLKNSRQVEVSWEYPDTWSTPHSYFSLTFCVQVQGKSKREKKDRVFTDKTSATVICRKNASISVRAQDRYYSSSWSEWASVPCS
Description: SPR, ProteOn XPR36, global 1:1 fit. On the procedure: B) Affinities were measured for humanized antibodies derived from mouse antibody 6B8.
Background: SPR reads the build-up and loss of mass on a sensor chip optically.

For test [1], the target named is T2, recombinant human IL-23 (human, UniProt P29460 23-328).
T2 sequence 1: T1 sequence 1
T2 sequence 2: T1 sequence 2
Description: cell-based or functional assay.

The target in test [2] is T3, natural human IL-23 from activated THP-1 cells (human, UniProt P29460 23-328).
T3 sequence 1: T1 sequence 1
T3 sequence 2: T1 sequence 2
Description: cell-based or functional assay.

The target in the next test is T4, human IL-12 (human, UniProt P29459 23-219; P29460 23-328).
T4 sequence (looked up) 1: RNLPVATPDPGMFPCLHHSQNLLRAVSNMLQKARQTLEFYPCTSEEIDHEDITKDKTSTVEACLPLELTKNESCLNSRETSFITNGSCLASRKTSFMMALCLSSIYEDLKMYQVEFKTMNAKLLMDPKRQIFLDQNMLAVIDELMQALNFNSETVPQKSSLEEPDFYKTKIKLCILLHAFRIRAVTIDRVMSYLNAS
T4 sequence (looked up) 2: T1 sequence 2
Description: cell-based or functional assay.

For test [3], the target named is T2, recombinant human IL-23. Description: BLI, Fortebio Octet; hybridoma-derived antibody. How it is done: Kinetics and binding affinities were measured using the Fortebio OCTET® (Fortebio, Menlo Park, Calif.) using material generated from hybridoma following single column purification.
In general terms: In BLI a coated tip is dipped into the sample, and binding shifts an interference pattern.

The next test addresses T5, cynomologous IL-23 (cynomolgus monkey).
T5 construct: also called cynomolgus IL-23; cynomolgus monkey IL-23
Put plainly: SPR, ProteOn XPR36, global 1:1 fit.

Values joined by “and” are separate entries in the source; they are usually repeats but may differ in a detail not shown here. Equal entries are not always repeated. Some results are limits rather than exact numbers.

B1: antibody C1273 (disclosed in WO 2007/005955) (antibody, V domains shown)
VH: DVNLVESGGGLVKPGGSLKLSCAASGFTFSSYTMSWVRQTPEKRLEWVATISSGGTYTYYPDSVKGRFTISRDNAKNTLYLQMSSLKSEDTAMFYCTRDNHAYDRGPFFDYWGQGATLTVSS
VL: DIVMSQSPSSLVVSVGEKVTMSCKSSQNLFYRSNQKNHLAWYQQKPGQSPTLLIYWTSTRESGVPDRFTGSGSGTDFTLTISRVKAEDLAVYYCQQYYSYPPTFGGGTKLEIK
As usually defined, the Kd is the concentration at which binding is half-saturated. As a reminder, the koff is the first-order rate constant of dissociation. The term kon denotes the second-order rate constant of association. As for B1, in the test with Human IL-23 no linker, binding was characterised by a dissociation constant (Kd) of 0.0158 nM, the off-rate constant (koff) was determined as 5.75e-06 s⁻¹ and the on-rate (kon) was found to be 360000 M⁻¹ s⁻¹.

B2: Chimeric 6B8 (antibody, V domains shown)
VH: QVQLQQSDAELVKPGTSVKTSCKISGNTFTDQTIHWMKQRPEQGLEWIGYIYPRDDSPKYNENFKGKATLTADKSSSTAYMQLNSLTSEDSAVYFCAIPDRSGYAWFIYWGQGTLVTVSS
VL: DIVMTQSHKFLSTSVGDRVTITCKASRDVAIAVAWYQQKPGQSPKLLLFWASTRHTGVPDRFTGSGSRTDFTLTISNVQSEDLADYFCHQYSSYPFTFGSGTKLEIK
For B2, the “IC50, IL-23 stimulated IL-17 production from mouse splenocytes” value (“IC50, IL-23 stimulated IL-17 production” below) is 0.026 nM and 0.037 nM and 0.057 nM with recombinant human IL-23 [1]; 0.005 nM and 0.002 nM and 0.006 nM and 0.003 nM in test [2]. The “Average pg/ml IFN-γ +/- Standard Deviation, human PHA-derived T cell blasts with 1 ng/ml IL-12 (no antibody: 532 +/- 51; unstimulated: 87 +/- 7)” value with human IL-12 came out at 523 pg/ml IFN-γ.

B3: Mouse antibody 6B8 (antibody, V domains shown)
VH: B2 VH
VL: B2 VL
notes: Mouse monoclonal antibody from hybridoma; also called Mouse 6B8; 6B8Vk
Regarding B3, the “IC50, IL-23 stimulated IL-17 production” value with recombinant human IL-23 [1] was 0.013 nM. Further, in the test with Human IL-23 no linker, the dissociation constant (Kd) was 0.0245 nM, the koff came out at 1.38e-05 s⁻¹ and the kon was 557000 M⁻¹ s⁻¹. In the test with recombinant human IL-23 [3], the Kd was less than 0.001 nM and the dissociation rate constant (koff) is less than 1e-06 s⁻¹.

B4: 34G3 (antibody, V domains shown)
VH: EFQLQQSGPELVKPGASVKISCKASGYSFTDYNMNWVKQSKGKSLEWIGVIIPNYGFTSYNQNFKGKATLTVDQSSSTAHMQLNSVTSEDSAVYYCVRDGGILLWYLDVWGTGTTVTVSS
VL: DVVMTQTPLSLPVSLGDQASISCRSSQSLVHSNGNTYLHWYLQKPGQSPKLLIYKVSNRFSGVPDRFSGSGSGTDFTLKISRVEAEDLGVYFCSQSTHVPYTFGGGTKLEIN
notes: Mouse monoclonal antibody from hybridoma; also called 34G3Vk; 34G3VH
As to B4, in the test with recombinant human IL-23 [1], the “IC50, IL-23 stimulated IL-17 production” value was 0.336 nM. The “IC50, IL-23 stimulated IL-17 production” value in test [2] was 0.027 nM and 0.025 nM. In the test with recombinant human IL-23 [3], the dissociation constant Kd worked out at 0.0328 nM, the off-rate (koff) was 3.1e-05 s⁻¹ and the kon worked out at 918000 M⁻¹ s⁻¹.

B5: 34D9 (antibody, V domains shown)
VH: EVQLQQSGPELVKPGASVKIPCKASGYTFTDYNMDWVKKSHGKSLEWIGDINPHNGGTIYNQKFKGKATLTVDKSSSTAHMELRSLTSEDTAVYYCARNYYGSSYGWYFDVWGTGTTVTVSS
VL: DIMMTQSHKFMSTSVGDRVSITCKASQDVGNAVVWYQQKPGQSPKLLIYWASTRHIGVPDRFTGSGSGTDFTLTITNVQSEDLADYFCQQYSSYLTFGAGTKLELK
notes: Mouse monoclonal antibody from hybridoma; also called 34D9Vk; 34D9VH7
As to B5, in the test with recombinant human IL-23 [1], the “IC50, IL-23 stimulated IL-17 production” value was determined as 0.51 nM. Further, the “IC50, IL-23 stimulated IL-17 production” value in test [2] was found to be 0.456 nM. For the same molecule, in the test with recombinant human IL-23 [3], the dissociation constant (Kd) is 0.544 nM, the off-rate constant (koff) worked out at 1.87e-06 s⁻¹ and the on-rate constant (kon) was 3440 M⁻¹ s⁻¹.

B6: Antibody A (antibody, human IgG1, kappa, L234A L235A, V domains shown)
VH: QVQLVQSGAEVKKPGSSVKVSCKASGYTFTDQTIHWMRQAPGQGLEWIGYIYPRDDSPKYNENFKGKVTITADKSTSTAYMELSSLRSEDTAVYYCAIPDRSGYAWFIYWGQGTLVTVSS
VL: DIQMTQSPSSLSASVGDRVTITCKASRDVAIAVAWYQQKPGKVPKLLIYWASTRHTGVPSRFSGSGSRTDFTLTISSLQPEDVADYFCHQYSSYPFTFGSGTKLEIKR
notes: Humanized 6B8, human IgG1-KO (L234A/L235A) / kappa; also called 6B8-IgG1KO-2 with IgK-66; 6B8CVH-02 / 6B8CVK-66
As for B6, the “IC50, IL-23 stimulated IL-17 production” value was 0.005 nM and 0.015 nM with recombinant human IL-23 [1]; 0.001 nM in test [2]. In addition, in the test with human IL-12, the “Average pg/ml IFN-γ +/- Standard Deviation, human PHA-derived T cell blasts with 1 ng/ml IL-12 (no antibody: 532 +/- 51; unstimulated: 87 +/- 7)” value amounted to 497 pg/ml IFN-γ. In addition, the equilibrium dissociation constant (Kd) with Human IL-23 no linker and in the test with cynomologous IL-23 was less than 0.001 nM each time.
